From paper doi:10.1101/2020.11.13.381533 (bioRxiv, 2020)
Where a chain is given by its changes, count along the chain named. Numbers in names are those of the source.

B1: C1A-B3 Fab (Fab, V domains shown)
VH: EVQLVESGGGLIQPGGSLRLSCAASGFTVSSNYMSWVRQAPGKGLEWVSVIYSGGTTYYADSVKGRFTISRDNSKNTVFLQMNSLRAEDTAVYYCARGDVSGYRYGLDYWGQGTLVTVS
VL: DIQLTQSPSSLSASVGDRVTITCRASQGISSYLAWYQQKPGKAPKLLIYAASTLQSGVPSRFSGSGSGTDFTLTISSLQPEDFATYYCQQLNSYPGTFGQGTKLEIK
B2: C1A-C2 Fab (Fab, V domains shown)
VH: B1 VH with A24V, S31N, V78L, F79Y
VL: B1 VL with S14F, Q27E, K42N, Q55E
B3: C1A-F10 Fab (Fab, V domains shown)
VH: B1 VH with V78L, F79Y
VL: B1 VL with Q55E, S56N

Target: SARS-CoV-2 S receptor-binding domain (RBD), construct for crystallography (SARS-CoV-2, GenBank QHD43416.1 …, UniProt P0DTC2)
Assay: crystal structure

Row | Binder | binding result
1 | B1 | binds
2 | B2 | binds
3 | B3 | binds
